In article PMC3763809:

Experiments:
[1] = target: H3(1-132)-LEEGLG nucleosome, first Glu of the tail to Ala (Drosophila | human) (UniProt P02299); assay: ITC
[2] = target: H3(1-132)-LEEGLG nucleosome, second Glu of the tail to Ala (Drosophila | human) (UniProt P02299); assay: ITC

Sequence of CENP-C central region, CENP-C(444-537) (Q03188 444-537): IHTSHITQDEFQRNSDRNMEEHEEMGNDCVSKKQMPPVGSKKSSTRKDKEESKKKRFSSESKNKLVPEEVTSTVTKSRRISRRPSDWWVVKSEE

## CENP-C central region, CENP-C(444-537) (from UniProt Q03188 444-537) (domain or fragment)
[1]
  factor of change of Kd against the H3(1-132)-LEEGLG nucleosome: 3 fold
[2]
  factor of change of Kd against the H3(1-132)-LEEGLG nucleosome: 10 fold
